Laboratory results as given in PMC8096781.

Target: endogenous PKM2 (HeLa cells) (human (endogenous in HeLa)) (UniProt P14618)
Test: SEC; gel chromatography (Superdex 200, cold PBS, 4 °C, 0.3 mL/min) of extracts of HeLa cells with vector, FOXM1A or FOXM1D; fractions analysed by western blot

endogenous PKM2 (HeLa cells), P14618 1-531 (enzyme; other documents disagree on this pair), sequence (P14618 whole entry): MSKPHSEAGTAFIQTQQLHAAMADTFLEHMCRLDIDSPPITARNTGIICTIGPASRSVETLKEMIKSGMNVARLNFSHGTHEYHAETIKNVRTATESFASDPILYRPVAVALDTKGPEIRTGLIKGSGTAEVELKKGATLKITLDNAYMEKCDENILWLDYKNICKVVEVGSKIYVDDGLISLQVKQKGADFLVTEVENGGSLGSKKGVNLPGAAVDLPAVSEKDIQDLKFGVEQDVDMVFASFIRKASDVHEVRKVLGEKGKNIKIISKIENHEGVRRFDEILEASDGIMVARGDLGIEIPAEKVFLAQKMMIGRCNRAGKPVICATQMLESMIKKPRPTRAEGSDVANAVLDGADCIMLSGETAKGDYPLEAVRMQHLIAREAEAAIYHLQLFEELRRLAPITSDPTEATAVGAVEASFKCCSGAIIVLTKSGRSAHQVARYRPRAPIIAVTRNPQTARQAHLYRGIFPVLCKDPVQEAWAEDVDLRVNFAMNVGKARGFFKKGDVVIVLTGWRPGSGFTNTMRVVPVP

For “endogenous PKM2 (HeLa cells), P14618 1-531 (enzyme; other documents disagree on this pair)”, which stoichiometry N is on record?
Its stoichiometry N is 2.
